US20120122214A1

Target: bovine serum albumin (bovine) (UniProt P02769)
Assay: flow cytometry; iPS-MP in suspension with control fluorescent particles coated with only albumin, 37° C., 90 minutes

Sequence of bovine serum albumin (bovine) (P02769 25-607 limits assumed): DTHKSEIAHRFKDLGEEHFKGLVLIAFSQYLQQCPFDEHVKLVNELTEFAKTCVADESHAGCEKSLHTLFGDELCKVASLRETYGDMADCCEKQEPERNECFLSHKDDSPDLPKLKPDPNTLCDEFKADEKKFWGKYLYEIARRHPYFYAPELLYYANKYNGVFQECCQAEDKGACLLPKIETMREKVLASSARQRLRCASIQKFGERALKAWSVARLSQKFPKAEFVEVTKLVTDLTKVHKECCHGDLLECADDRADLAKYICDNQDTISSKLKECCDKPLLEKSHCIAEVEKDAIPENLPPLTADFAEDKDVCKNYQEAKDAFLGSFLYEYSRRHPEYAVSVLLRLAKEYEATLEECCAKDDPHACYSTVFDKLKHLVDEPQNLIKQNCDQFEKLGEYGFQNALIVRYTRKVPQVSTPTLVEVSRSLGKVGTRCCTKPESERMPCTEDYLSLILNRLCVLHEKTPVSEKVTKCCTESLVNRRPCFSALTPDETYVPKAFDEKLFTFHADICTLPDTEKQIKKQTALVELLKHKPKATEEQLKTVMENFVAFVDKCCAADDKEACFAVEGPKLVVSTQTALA

mean fluorescence intensity: 781 | percent of cells bound to the beads: 25.5%
Substance: single-chain antibody (scFv) recognizing human β-amyloid peptide, derived from mouse hybridoma clone 3D6, fused to mouse IgG2a Fc portion and mouse Fc receptor (FcγRI) trans-cell membrane-cytoplasm portion, expressed on iPS-MP
